From publication PMC11790763, “A Peptide Motif Covering Splice Site B in Neuroligin-1 Binds to Aβ and Acts as a Neprilysin Inhibitor” (Molecular Neurobiology, 2024) come the findings set out here.

One assay concerns the target T1, recombinant rat NL1 (Rattus norvegicus, UniProt Q62765).
T1 construct: the extracellular domain of NL1 was immobilized on a sensor chip; purchased R&D systems (Abingdon, UK)
Kind of assay: Surface plasmon resonance binding to immobilized NL1. The conditions noted are these: SPR, Biacore 2000, 25 °C, HBS-P pH 7.4 + 3 mM CaCl2; analyte injected over NL1 immobilized on CM4 chip, 20 μl/min; 1:1 Langmuir model; four independent experiments. As to the method:
Binding analysis was performed on a Biacore 2000 SPR biosensor (GE Healthcare) at 25 °C using HBS-P (10 mM HEPES, pH 7.4, 150 mM NaCl, 0.005% [v/v] Surfactant P20) supplemented with 3 mM CaCl2 as a running buffer. Approximately 2000 Resonance Units (RU) of NL1 was immobilized on a CM4 sensor chip at a flow rate of 5 μl/min by amine coupling. Binding to serially diluted recombinant NX1β, used as a positive control, was performed as previously described. Aβ1-42 was dissolved in anhydrous DMSO to a stock concentration of 3.21 mM followed by serial dilution in running buffer. Peptide was injected into the chip, and binding experiments were performed at a flow rate of 20 μl/min, followed by regeneration of sensor chip with 10 μl of 15 mM NaOH and 150 mM NaCl. After subtraction of blank control, the binding curves were analyzed based on a nonlinear curve fitting using a 1:1 Langmuir binding model and the software package BIAevaluation 4 (GE Healthcare). The apparent equilibrium constant (KD) was calculated as kd/ka, in which ka and kd are the apparent association and dissociation constants, respectively.
(SPR reads the build-up and loss of mass on a sensor chip optically.)

In assay [1] the target is Biotinylated amyloid-β peptide 1-40 (Aβ1-40). Briefly: ELISA; competitive ELISA: NL1 (3.125 nM) coated on the plate; biotinylated Aβ1-40 (400 nM; Aβ40-1 as negative control) premixed 30 min with serially diluted NL1 or NL1-derived peptides; 4 h at room temperature; streptavidin-HRP; IC50 interpreted as KD. In general terms: In an ELISA, binding on a coated surface is turned into a signal by an enzyme label.

T1 sequence (Q62765 46-697 limits assumed): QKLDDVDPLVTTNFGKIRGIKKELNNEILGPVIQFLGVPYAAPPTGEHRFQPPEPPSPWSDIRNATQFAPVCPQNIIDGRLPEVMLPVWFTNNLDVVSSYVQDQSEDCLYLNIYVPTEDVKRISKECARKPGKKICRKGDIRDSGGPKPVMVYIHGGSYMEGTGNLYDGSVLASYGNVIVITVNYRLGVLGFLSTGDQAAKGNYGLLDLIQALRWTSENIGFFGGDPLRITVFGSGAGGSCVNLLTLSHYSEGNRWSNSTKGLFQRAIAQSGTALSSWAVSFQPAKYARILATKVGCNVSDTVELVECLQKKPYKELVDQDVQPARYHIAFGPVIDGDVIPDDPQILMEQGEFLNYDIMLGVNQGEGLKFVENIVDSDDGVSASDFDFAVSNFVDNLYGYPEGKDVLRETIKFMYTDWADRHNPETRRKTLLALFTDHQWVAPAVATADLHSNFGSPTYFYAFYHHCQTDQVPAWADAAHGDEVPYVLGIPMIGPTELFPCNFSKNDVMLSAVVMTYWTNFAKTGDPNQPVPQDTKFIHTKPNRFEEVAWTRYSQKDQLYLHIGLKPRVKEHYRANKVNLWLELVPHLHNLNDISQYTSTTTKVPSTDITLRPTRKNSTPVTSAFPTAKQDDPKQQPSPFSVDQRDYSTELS

A word on the Kd: it is the free concentration of one partner at which half of the binding sites on the other are occupied at equilibrium, for simple one-to-one binding. For the substance “NX1β: recombinant neurexin-1β, positive control for binding to NL1”, the Kd in the assay with recombinant rat NL1 came out at 6.64 nM.
Turning to “Recombinant rat neuroligin-1 (NL1), soluble extracellular domain (from UniProt Q62765 46-697) (domain or fragment)”, in assay [1], the Kd came to 19.9 nM.
